Measurements from patent US20110294728.
Where two headings read alike, the source gives them in different places.

How the values were obtained:
HIV-1 integrase (HIV-1) = experiment: FP
[1] = molecular target: monomeric p51 subunit of HIV-1 RT (UniProt P03366); experiment: stopped-flow, FRET between Trp of RT and bis-ANS, without PAW
[2] = molecular target: monomeric p51 subunit of HIV-1 RT (UniProt P03366); experiment: stopped-flow, FRET between Trp of RT and bis-ANS, RT incubated with PAW

## 21-mer U5 LTR end oligonucleotide
HIV-1 integrase (HIV-1)
  IC50: 15.2 µM
HIV-1 integrase (HIV-1); 3'-processing active, value is IC50 of PAW peptide, 10 mM MgCl2, 37 C
  IC50: 12.7 µM

## monomeric p66 subunit of HIV-1 RT
[1]
  kdis (dissociation rate constant of the RT heterodimer in 10% acetonitrile): a dissociation rate constant kdis of 5.30±0.01 s^-1
[2]
  kdis (dissociation rate constant of the RT heterodimer in 10% acetonitrile): kdis=1.42±0.007 s^-1
